How the values were obtained:
IL-36R (20-333)-His6-Avi = biological target: T1, IL-36R (20-333)-His6-Avi (human, UniProt Q9HB29 20-333, biotin on the Avi tag (in vitro, BirA)); assay: SPR
T1 sequence (looked up): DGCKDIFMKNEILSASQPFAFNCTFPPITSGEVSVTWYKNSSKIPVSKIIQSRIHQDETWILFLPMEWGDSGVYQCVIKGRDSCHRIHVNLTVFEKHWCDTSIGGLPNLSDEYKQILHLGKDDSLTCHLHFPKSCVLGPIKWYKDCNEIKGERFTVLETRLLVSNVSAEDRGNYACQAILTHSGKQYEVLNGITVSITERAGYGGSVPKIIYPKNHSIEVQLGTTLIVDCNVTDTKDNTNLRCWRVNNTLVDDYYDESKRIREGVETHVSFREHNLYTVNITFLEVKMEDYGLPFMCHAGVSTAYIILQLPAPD

IL-36R (20-220)-His6-Avi = IL-36R (20-220)-His6-Avi (human, UniProt Q9HB29, biotin on the Avi tag (in vitro, BirA)); assay: crystal structure
[1] = patients who had received at least one dose; cited from earlier work

B1: Human IL-36α (aa 6–158) (ligand, UniProt Q9UHA7 6-158, looked up)
chain: KIDTPQQGSIQDINHRVWVLQDQTLIAVPRKDRMSPVTIALISCRHVETLEKDRGNPIYLGLNGLNLCLMCAKVGDQPTLQLKEKDIMDLYNQPEPVKSFLFYHSQSGRNSTFESVAFPGWFIAVSSEGGCPLILTQELGKANTTDFGLTMLF
Kd (IL-36R (20-333)-His6-Avi): ~0.6 µM

B2: spesolimab-Fab (Fab, V domains shown)
VH: QVQLVQSGAEVKKPGASVKVSCKASGYSFTSSWIHWVKQAPGQGLEWMGEINPGNVRTNYNENFRNKVTMTVDTSISTAYMELSRLRSDDTAVYYCTVVFYGEPYFPYWGQGTLVTVSS
VL: QIVLTQSPGTLSLSPGERATMTCTASSSVSSSYFHWYQQKPGQAPRLWIYRTSRLASGVPDRFSGSGSGTDFTLTISRLEPEDAATYYCHQFHRSPLTFGAGTKLEIK
binding result (IL-36R (20-220)-His6-Avi): binds

B3: spesolimab: IL-36R blocking antibody, positive control; approved for flares of GPP (antibody, chains of the INN, looked up, V domains shown)
VH: QVQLVQSGAEVKKPGASVKVSCKASGYSFTSSWIHWVKQAPGQGLEWMGEINPGNVRTNYNENFRNKVTMTVDTSISTAYMELSRLRSDDTAVYYCTVVFYGEPYFPYWGQGTLVTVSS
VL: QIVLTQSPGTLSLSPGERATMTCTASSSVSSSYFHWYQQKPGQAPRLWIYRTSRLASGVPDRFSGSGSGTDFTLTISRLEPEDAATYYCHQFHRSPLTFGAGTKLEIK
anti-drug antibodies observed, patients [1]: 23 out of 50

From paper PMC11829961 (Nature Communications, 2025)
